Test results published in PMC9637719.
Like-named read-outs stand apart in the source and are kept apart here. Values belong to the substance of their own block, whether it stands above or below them.

Assays:
[1] = target: JetD (Wadjet nuclease subunit, P. aeruginosa PA14) (Pseudomonas aeruginosa PA14); assay: SEC + SEC-MALS
[2] = target: JetAB complex (JetA2B4), full-length JetA and JetB (Pseudomonas aeruginosa PA14); assay: SEC + SEC-MALS
[3] = target: JetAB complex (JetA2B4), full-length JetA and JetB (Pseudomonas aeruginosa PA14); assay: SEC + SEC-MALS; remark: listed apart in the source
[4] = target: JetC (Wadjet SMC ATPase subunit, P. aeruginosa PA14), tagless wild type (Pseudomonas aeruginosa PA14); assay: SEC + SEC-MALS
[5] = target: JetAB complex (JetA2B4), full-length JetA and JetB (Pseudomonas aeruginosa PA14); assay: SEC-MALS

stoichiometry N [1]: 2
Substance: JetD (Wadjet nuclease subunit, P. aeruginosa PA14) (natural protein)

stoichiometry N (JetC per JetA2B4) [2]: 4 | stoichiometry N (JetC per JetA2B4) [3]: 2 | stoichiometry N [4]: 2
Substance: JetC (Wadjet SMC ATPase subunit, P. aeruginosa PA14), tagless wild type (natural protein)

Substance: JetC^head (JetC^E1022Q,L783A 1-284-[…]-781-1101) (domain or fragment)
stoichiometry N (JetC^head per JetA2B4) [5]: 2
